Values joined by “and” are separate entries in the source; they are usually repeats but may differ in a detail not shown here. Equal values may be shown once.
Columns and labels:
[1] = target: T1, CEA-derived … (SEQ ID NO: 71)-HLA-A*0201 complex (biotin on the C-terminal biotinylation tag (enzymatic, BirA)); test: Biacore SPR, pMHC immobilised
T1 construct: also called soluble biotinylated HLA-A2-peptide complex; not shown: C-terminal biotinylation tag that replaces the transmembrane and cytoplasmic domains
Experimental: SPR measures changes in refractive index expressed in response units (RU) near a sensor surface within a small flow cell, a principle that can be used to detect receptor ligand interactions and to analyse their affinity and kinetic parameters. The probe flow cells were prepared by immobilising the pMHC complexes in flow cells via biotin-tag binding. The assay was then performed by passing soluble ILT over the surfaces of the different flow cells at a constant flow rate, measuring the SPR response in doing so.

[2] = target: Class I pMHC on Mel 624 target cells; test: cell-based or functional assay

B1: SEQ ID NO 29 (receptor)
chain: MHLPKPTLWAEPGSVITLQSPVTLRCQGGQETQQYRLYREKKTAPWITRIPQELVKKGQFPIPSITWEHAGRYRCYYGSDTRQWSASSDPLELVVTGVYIKPTLSAQPSPVVNSGGNVTLQCDSQVAFDGFILCKEGEDDHPQCLNSQPHARGSSRAIFSVGPVSPSRRWRYRCYAYMSWSPYEWSLPSDLLELDVDG
Which Kd [1] does the source give for B1 here?
Its Kd is no more than 1000 nM.

What about the koff [1] of the same binder?
Its koff is no more than 2 s⁻¹.

B2: SEQ ID NO 28 (receptor)
chain: MHLPKPTLWAEPGSVITLQSPVTLRCQGGQETQQYRLYREKKTAPWITRIPQELVKKGQFPIPSITWEHAGRYRCYYGSDTRQWSASSDPLELVVTGVYIKPTLSAQPSPVVNSGGNVTLQCDSQVAFDGFILCKEGEDDHPQCLNSQPHARGSSRAIFSVGPVSPSRRWRYRCYAYMSWAPYEWSLPSDLLELDVDG
What does the source list for B2?
Kd [1]: ≤ 1000 nM; koff [1]: ≤ 2 s⁻¹

B3: SEQ ID NO 6 (receptor)
chain: MHLPKPTLWAEPGSVITLQSPVTLRCQGGQETQQYRLYREKKTAPWITRIPQELVKKGQFPIPSITWEHAGRYRCYYGSDTRQWSASSDPLELVVTGVYIKPTLSAQPSPVVNSGGNVTLQCDSQVAFDGFILCKEGEDDHPQCLNSQPHARGSSRAIFSVGPVSPSRRWRYRCYAYDSNSPYEWSLPSDLLELDVDG
What does the source list for B3?
Kd [1]: ≤ 1000 nM; koff [1]: ≤ 2 s⁻¹

B4: SEQ ID NO 27 (receptor)
chain: MHLPKPTLWAEPGSVITLQSPVTLRCQGGQETQQYRLYREKKTAPWITRIPQELVKKGQFPIPSITWEHAGRYRCYYGSDTRQWSASSDPLELVVTGVYIKPTLSAQPSPVVNSGGNVTLQCDSQVAFDGFILCKEGEDDHPQCLNSQPHARGSSRAIFSVGPVSPSRRWRYRCYAYPAWTPYEWSLPSDLLELDVDG
For B4, which Kd [1] is on record?
Its Kd is no more than 1000 nM.

What about the koff [1] of the same binder?
The koff was no more than 2 s⁻¹.

B5: SEQ ID NO 49 (receptor)
chain: MHLPKPTLWAEPGSVITLQSPLTLRCQGGQETQQYRLYREKKTAPWITRIPQELVKKGQFPIPSITWEHAGRYRCYYGSDTRQWSASSDPLELVVTGVYIKPTLSAQPSPVVNSGGNVTLQCDSQVAFDGFILCKEGEDDHPQCLNSQPHARGSSRAIFSVGPVSPSRRWRYRCYAYMSWSPYEWSLPSDLLELDVDG
B5 was tested. Which Kd [1] did it give?
Its Kd is no more than 1000 nM.

What about the koff [1] of the same binder?
The koff was no more than 2 s⁻¹.

B6: SEQ ID NO 26 (receptor)
chain: MHLPKPTLWAEPGSVITLQSPVTLRCQGGQETQQYRLYREKKTAPWITRIPQELVKKGQFPIPSITWEHAGRYRCYYGSDTRQWSASSDPLELVVTGVYIKPTLSAQPSPVVNSGGNVTLQCDSQVAFDGFILCKEGEDDHPQCLNSQPHARGSSRAIFSVGPVSPSRRWRYRCYAYMNWAPYEWSLPSDLLELDVDG
Which results are given for B6?
Kd [1]: ≤ 1000 nM; koff [1]: ≤ 2 s⁻¹

B7: SEQ ID NO 24 (receptor)
chain: MHLPKPTLWAEPGSVITLQSPVTLRCQGGQETQQYRLYREKKTAPWITRIPQELVKKGQFPIPSITWEHAGRYRCYYGSDTRQWSASSDPLELVVTGVYIKPTLSAQPSPVVNSGGNVTLQCDSQVAFDGFILCKEGEDDHPQCLNSQPHARGSSRAIFSVGPVSPSRRWRYRCYAYPIWTPYEWSLPSDLLELDVDG
Which Kd [1] does the source give for B7 here?
The Kd was no more than 1000 nM.

What about the koff [1] of the same binder?
The koff was no more than 2 s⁻¹.

B8: SEQ ID NO 42 (receptor)
chain: MHLPKPTLWAEPGSVITLQSPLTLRCQGGQETQQYRLYREKKTAPWITRIPQELVKKGQFPIPSITWEHAGRYRCYYGSDTRQWSASSDPLELVVTGVYIKPTLSAQPSPVVNSGGNVTLQCDSQVAFDGFILCKEGEDDHPQCLNSQPHARGSSRAIFSVGPVSPSRRWRYRCYAYDSNSPYEWSLPSDLLELDVDG
Which Kd [1] does the source give for B8 here?
The Kd was no more than 1000 nM.

And the koff [1]?
The koff was no more than 2 s⁻¹.

B9: SEQ ID NO 25 (receptor)
chain: MHLPKPTLWAEPGSVITLQSPVTLRCQGGQETQQYRLYREKKTAPWITRIPQELVKKGQFPIPSITWEHAGRYRCYYGSDTRQWSASSDPLELVVTGVYIKPTLSAQPSPVVNSGGNVTLQCDSQVAFDGFILCKEGEDDHPQCLNSQPHARGSSRAIFSVGPVSPSRRWRYRCYAYVAWAPYEWSLPSDLLELDVDG
What does the source list for B9?
Kd [1]: ≤ 1000 nM; koff [1]: ≤ 2 s⁻¹

B10: SEQ ID NO 50 (receptor)
chain: MHLPKPTLWAEPGSVITLQSPLTLRCQGGQETQQYRLYREKKTAPWITRIPQELVKKGQFPIPSITWEHAGRYRCYYGSDTRQWSASSDPLELVVTGVYIKPTLSAQPSPVVNSGGNVTLQCDSQVAFDGFILCKEGEDDHPQCLNSQPHARGSSRAIFSVGPVSPSRRWRYRCYAYMSWAPYEWSLPSDLLELDVDG
Which Kd [1] does the source give for B10 here?
Its Kd is no more than 1000 nM.

What about the koff [1] of the same binder?
Its koff is no more than 2 s⁻¹.

B11: soluble high affinity c83 (SEQ ID NO: 19) ILT-like polypeptide (receptor)
chain: MAGHLPKPTLWAEPGSVITMDQPVTLRCQGGQETQEYRLYREKKTAPWITRIPQELVKKGQFPIPSITWEHAGRYRCYYGSDTSQWSASSDPLELVVTGVYIKPTLSAQPSPVVNSGGNVTLQCDSQVAFDGFILCKEGEDEHPQCLNSQPHARGSSRAIFSVGPVSPSRRWWYRCYAYMSWSPYEWSLPSDLLELDVDG
notes: also called clone 83 (c83) ILT-2 polypeptide
Which Kd [1] does the source give for B11 here?
Its Kd is no more than 1000 nM.

And the koff [1]?
Its koff is no more than 2 s⁻¹.

And the “Average IC50, inhibition of CTL activation (IFN-γ ELISPOT)” value [2]?
The value was 96 nM.

What about the “IC50, inhibition of CTL activation (IFN-γ ELISPOT, Mel 624 target cells, MART-1 specific T cell clone KA/C5)” value [2] of the same binder?
The value was 76 nM and 94 nM and 117 nM.

B12: SEQ ID NO 60 (receptor)
chain: MGHLPKPTLWAEPGSVITMDQPVTLRCQGGQETQQYRLYREKKTAPWITRIPQELVKKGQFPIPSITWEHAGRYRCYYGSDTRQWSASSDPLELVVTGVYIKPTLSAQPSPVVNSGGNVTLQCDSQVAFDGFILCKEGEDDHPQCLNSQPHARGSSRAIFSVGPVSPSRRWRYRCYAYDSNSPYEWTRGSDLLELDVDG
What does the source list for B12?
Kd [1]: ≤ 1000 nM; koff [1]: ≤ 2 s⁻¹

B13: SEQ ID NO 65 (receptor)
chain: MGHLPKPTLWAEPGSVITMDQPVTLRCQGGQETQEYRLYREKKTAPWITRIPQELVKKGQFPIPSITWEHAGRYRCYYGSDTSQWSASSDPLELVVTGVYIKPTLSAQPSPVVNSGGNVTLQCDSPFIAEGFILCKEGEDEHPQCLNSQPHARGSSRAIFSVGPVSPSRRWWYRCYAYMSWSPYEWSLPSDLLELDVDG
What does the source list for B13?
Kd [1]: ≤ 1000 nM; koff [1]: ≤ 2 s⁻¹

B14: SEQ ID NO 66 (receptor)
chain: MGHLPKPTLWAEPGSVITMDQPVTLRCQGGQETQEYRLYREKKTAPWITRIPQELVKKGQFPIPSITWEHAGRYRCYYGSDTSQWSASSDPLELVVTGVYIKPTLSAQPSPVVNSGGNVTLQCDSPFLSDGFILCKEGEDEHPQCLNSQPHARGSSRAIFSVGPVSPSRKWWYRCYAYMSWSPYEWSLPSDLLELDVDG
What does the source list for B14?
Kd [1]: ≤ 1000 nM; koff [1]: ≤ 2 s⁻¹

B15: SEQ ID NO 67 (receptor)
chain: MGHLPKPTLWAEPGSVITMDQPVTLRCQGGQETQEYRLYREKKTAPWITRIPQELVKKGQFPIPSITWEHAGRYRCYYGSDTSQWSASSDPLELVVTGVYIKPTLSAQPSPVVNSGGNVTLQCDSPFVSDGFILCKEGEDEHPQCLNSQPHARGSSRAIFSVGPVSPSRRWWYRCYAYMSWSPYEWSLPSDLLELDVDG
For B15, which Kd [1] is on record?
The Kd was no more than 1000 nM.

What about the koff [1] of the same binder?
Its koff is no more than 2 s⁻¹.

B16: SEQ ID NO 69 (receptor)
chain: MGHLPKPTLWAEPGSVITMDQPVTLRCQGGQETQEYRLYREKKTAPWITRIPQELVKKGQFPIPSITWEHAGRYRCYYGSDTSQWSASSDPLELVVTGVYIKPTLSAQPSPVVNSGGNVTLQCDSMFLVDGFILCKEGEDEHPQCLNSQPHARGSSRAIFSVGPVSPSRRWWYRCYAYMSWSPYEWSLPSDLLELDVDG
How did the Kd [1] turn out when B16 was run?
Its Kd is no more than 1000 nM.

What about the koff [1] of the same binder?
The koff was no more than 2 s⁻¹.

B17: SEQ ID NO 22 (receptor)
chain: MAGHLPKPTLWAEPGSVITMDQPVTLRCQGGQETQEYRLYREKKTAPWITRIPQELVKKGQFPIPSITWEHAGRYRCYYGSDTSQWSASSDPLELVVTGVYIKPTLSAQPSPVVNSGGNVTLQCDSQVAFDGFILCKEGEDEHPQCLNSQPHARGSSRAIFSVGPVSPSRRWWYRCYAYGRWLPYEWSLPSDLLELDVD
How did the Kd [1] turn out when B17 was run?
The Kd was no more than 1000 nM.

What about the koff [1] of the same binder?
Its koff is no more than 2 s⁻¹.

— patent US20110172168A1 (MEDIGENE, published 2011)
